Test results reported in publication PMC5116745, “Importance of the C-terminal histidine residues of Helicobacter pylori GroES for Toll-like receptor 4 binding and interleukin-8 cytokine production” (Scientific Reports, 2016).
Substitutions are numbered along the chain they refer to. Names may count otherwise.

B1: Helicobacter pylori GroES (HpGroES), wild type (natural protein)
chain: MKFQPLGERVLVERLEEENKTSSGIIIPDNAKEKPLMGVVKAVSHKISEGCKCVKEGDVIAFGKYKGAEIVLDGTEYMVLELEDILGIVGSGSCCHTGNHDHKHAKEHEACCHDHKKH
notes: GroES (HspA) of Helicobacter pylori; domain A plus C-terminal domain B (residues 91-118); Protein was dialysed with 4 molar equivalents of NiSO4 before size exclusion (nickel-loaded); also called WT; heat shock protein (HSP) A; source: E. coli M15 (pQE30), purified (Ni2+-chelating Sepharose, Superdex 200 size exclusion)
B2: HpGroES H108A mutant (natural protein, Helicobacter pylori, UniProt P0A0R3 1-118, looked up)
chain: B1 chain with H108A
notes: GroES (HspA) of Helicobacter pylori with a point mutation in domain B; Same construct as m1 with the mutation; nickel-loaded during purification; source: E. coli M15 (pQE30), purified (Ni2+-chelating Sepharose, Superdex 200 size exclusion)
B3: HpGroES H118A mutant (natural protein, Helicobacter pylori, UniProt P0A0R3 1-118, looked up)
chain: B1 chain with H118A
notes: as for B2
B4: HpGroES H115A mutant (natural protein, Helicobacter pylori, UniProt P0A0R3 1-118, looked up)
chain: B1 chain with H115A
notes: as for B2
B5: HpGroES H96A mutant (natural protein, Helicobacter pylori, UniProt P0A0R3 1-118, looked up)
chain: B1 chain with H96A
notes: as for B2
B6: HpGroES H113A mutant (natural protein, Helicobacter pylori, UniProt P0A0R3 1-118, looked up)
chain: B1 chain with H113A
notes: as for B2
B7: HpGroES H104A mutant (natural protein, Helicobacter pylori, UniProt P0A0R3 1-118, looked up)
chain: B1 chain with H104A
notes: as for B2
B8: HpGroES H102A mutant (natural protein, Helicobacter pylori, UniProt P0A0R3 1-118, looked up)
chain: B1 chain with H102A
notes: as for B2
B9: HpGroES H100A mutant (natural protein, Helicobacter pylori, UniProt P0A0R3 1-118, looked up)
chain: B1 chain with H100A
notes: as for B2

Biological target: T1, recombinant human TLR4 protein (human, UniProt O00206 24-631)
T1 construct: Toll-like receptor 4, human, recombinant protein from R&D Systems; R&D Systems' recombinant human TLR4 is, as far as recalled, the extracellular domain with a His tag (some products are a complex with MD-2); also called Toll-like receptor 4; source: bought: R&D Systems
Assay: SPR; Biacore T200; TLR4 immobilised on CM5 chip (6000 RU); HpGroES proteins flowed at 7.8125-1000 nM, 30 μl/min, 25 °C; PBS with 0.05% P20; Kd from saturation curves (GraphPad Prism)
Settings: both partners purified

T1 sequence (O00206 24-631): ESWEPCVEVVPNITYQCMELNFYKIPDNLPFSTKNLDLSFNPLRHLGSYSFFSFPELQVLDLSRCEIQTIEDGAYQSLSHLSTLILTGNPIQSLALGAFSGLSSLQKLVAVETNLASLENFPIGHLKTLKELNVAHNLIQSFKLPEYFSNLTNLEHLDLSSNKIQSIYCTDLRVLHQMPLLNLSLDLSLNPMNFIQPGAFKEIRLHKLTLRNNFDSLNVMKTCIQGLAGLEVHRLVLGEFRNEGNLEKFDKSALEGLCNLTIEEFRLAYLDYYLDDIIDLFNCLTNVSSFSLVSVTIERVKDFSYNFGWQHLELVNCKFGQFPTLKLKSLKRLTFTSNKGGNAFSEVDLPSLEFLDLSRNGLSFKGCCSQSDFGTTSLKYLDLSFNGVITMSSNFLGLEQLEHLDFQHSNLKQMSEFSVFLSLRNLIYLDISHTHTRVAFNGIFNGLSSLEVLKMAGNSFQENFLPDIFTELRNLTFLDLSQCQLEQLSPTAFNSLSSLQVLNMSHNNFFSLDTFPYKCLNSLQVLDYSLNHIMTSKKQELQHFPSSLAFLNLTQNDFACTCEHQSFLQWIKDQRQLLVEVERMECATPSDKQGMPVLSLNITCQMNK

Molecule	Kd
B1	100 nM
B2	> 1000 nM
B3	> 1000 nM
B4	150 nM
B5	110 nM
B6	> 1000 nM
B7	100 nM
B8	> 1000 nM

Biological target: the molecule itself
Assay: SEC; HiLoad 16/600 Superdex 200 pg; 150 mM NaCl, 25 mM potassium phosphate pH 7.4, 1 mM DTT, 0.3% glycerol; 2 ml/min
Settings: not given

Molecule	stoichiometry N
B1	7
B9	7
B2	7
B3	7
B4	7
B5	7
B6	7
B7	7
B8	7

Biological target: recombinant human TLR4 protein (human) (UniProt O00206)
Assay: SPR; Biacore T200; TLR4 immobilised on CM5 chip (6000 RU); HpGroES proteins flowed at 7.8125-1000 nM, 30 μl/min, 25 °C; PBS with 0.05% P20; Kd from saturation curves (GraphPad Prism)
Settings: not given

recombinant human TLR4 protein (human), sequence (O00206 24-631): as above

Molecule	Kd
HpGroES H100A mutant (from UniProt P0A0R3 1-118) (natural protein)	> 1000 nM
